The values below come from paper PMC4741949, “Aptamer targeting EGFRvIII mutant hampers its constitutive autophosphorylation and affects migration, invasion and proliferation of glioblastoma cells”.

In this data set the target is EGFR wild-type extracellular domain (human, UniProt P00533 25-645). Kind of data set: UV (254 nm) cross-linking MALDI-MS; 1:1 molar; peptide 495-500 (domain IV) linked to AGGC and GAGGC; RT-qPCR: 15 min 37 C, 100 ug/ml polyinosine, DPBS washes; flow cytometry: DPBS, 37 C, 30 min; confocal: DMEM without FBS; UV cross-linking buffer not given. The note with it: protein: recombinant. On the technique in general: Real-time PCR tracks product formation cycle by cycle.

Turning to GCCUUAGUAACGUGCUUUGAUGUCGAUUCGACAGGAGGC (structured_RNA, 2'F-pyrimidines (2'F-C, 2'F-U)) [CL4], the binding result is “binds”.
